Target: T1, human TNF (human, UniProt P01375 77-233)
T1 construct: Passed over captured antibody in solution; also called human TNFα
Test: SPR (BIAcore); antibody captured by immobilized anti-Fab′ antibody, human TNF passed over

T1 sequence (P01375 77-233 limits assumed): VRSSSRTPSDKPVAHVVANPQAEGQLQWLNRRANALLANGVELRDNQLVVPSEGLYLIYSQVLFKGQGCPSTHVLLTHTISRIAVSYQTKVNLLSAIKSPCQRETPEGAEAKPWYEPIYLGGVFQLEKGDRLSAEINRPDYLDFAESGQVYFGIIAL

B1: hTNF40 IgG (antibody, V domains shown)
VH: QIQLVQSGPELKKPGETVKISCKASGYVFTDYGMNWVKQAPGKAFKWMGWINTYIGEPIYVDDFKGRFAFSLETSASTAFLQINNLKNEDTATYFCARGYRSYAMDYWGQGTSVTVSS
VL: DIVMTQSQKFMSTSVGDRVSVTCKATQNVGTNVAWYQQKPGQSPKALIYSASFLYSGVPYRFTGSGSGTDFTLTISTVQSEDLAEYFCQQYNIYPLTFGAGTKLELKR
A Kd of 179 pM was found for B1 in this work.

Reference: patent US8067005
